According to patent publication US11391726B2, “MoT cells as a therapeutic screening tool for regulatory t-cell activity” (ARIZONA BOARD OF REGENTS ON BEHALF OF ARIZONA STATE …, priority 2018, dated 2022):

Key:
MoT cells = assay: CFSE suppression assay: Mabs pre-incubated with MoT cells, then co-cultured with CD3/28-stimulated CD4+ PBMC; assay type: cell-based, human; conditions: Mab pre-incubated with MoT cells 30 minutes, CD4+ PBMC:MoT ratio 1:1/2, CFSE flow cytometry (FIGS. 5D, 5F, 5H)
Protocol: (§1) Suppression assays. After IRB approval at Arizona State University (protocol #0601000548), peripheral blood was collected from healthy donors. After Ficoll-Paque Plus gradient separation of the buffy coat, CD4+ cells were purified using EasySep Human CD4^+ T Cell Isolation Kit (Catalog #17952 from Stemcell Technologies). Cells were allowed to rest overnight in cIMDM at 37° C. prior to labeling with CFSE (Carboxyfluorescein succinimidyl ester, from Cayman Chemica cat #10009853) dye to track cell divisions. The following day, CD4^+ T cells were counted, stained with CFSE, washed in PBS and then plated in IMDM with 10% FBS at 3×10^5 cells per well in a 48-well plate coated with OKT3 antibody at 5.0 ug/mL for 2 hours at 37° C. then washed twice in PBS before adding soluble co-stimulatory anti-CD28 (eBioscience clone CD28.6) at 5.0 ug/mL final concentration.
In some studies MoT and Jurkat cells were labeled with Cell Trace FarRed dye (Thermofisher) to gate MoT and Jurkat cells away from CD4^+ PBMC in flow cytometry analysis. Two-fold serial dilutions of MoT and Jurkat cells were added to CD4^+ PBMC, starting at 1.5×10^5 MoT and Jurkat cells (1:1/2 ratio CD4^+ T cells:tumor cells). Final volume per well was 1 mL. Cells were incubated for 5 days. […]

CD4+ PBMC = assay: CFSE proliferation assay: Mabs co-incubated with CD3/28-stimulated CD4+ PBMC without MoT cells; assay type: cell-based, human; conditions: no MoT cells (FIGS. 5C, 5E, 5G)
Protocol: as §1
(FIG. 5A) Unstimulated PBMC. (FIG. 5B) CD3/28-stimulated CD4^+ PBMC cell division without MoT cells. (FIG. 5C) Anti-GITR, (FIG. 5E) Anti-CCR4 mogamulizumab, and (FIG. 5G) anti-PDL-1 (atezolizumab) co-incubated with PBMCs. (FIG. 5D) Anti-GITR, (FIG. 5F) anti-CCR4 (mogamulizumab), and (FIG. 5H) anti-PDL-1 (atezolizumab) co-incubated with PBMCs and MoT cells (1:½ ratio).

B1: mogamulizumab (antibody, chains of the INN, looked up, V domains shown)
VH: EVQLVESGGDLVQPGRSLRLSCAASGFIFSNYGMSWVRQAPGKGLEWVATISSASTYSYYPDSVKGRFTISRDNAKNSLYLQMNSLRVEDTALYYCGRHSDGNFAFGYWGQGTLVTVSS
VL: DVLMTQSPLSLPVTPGEPASISCRSSRNIVHINGDTYLEWYLQKPGQSPQLLIYKVSNRFSGVPDRFSGSGSGTDFTLKISRVEAEDVGVYYCFQGSLLPWTFGQGTKVEIK
- reversal of MoT cell-mediated suppression of CD4+ PBMC proliferation (MoT cells): None of the checkpoint inhibitor Mabs including anti-GITR reversed MoT cell-mediated suppression
- reversal of MoT cell-mediated suppression of CD4+ PBMC proliferation (MoT cells; listed as ant-CCR4): did not attenuate MoT Treg suppressive activity
- suppression or inhibition of CD4+ PBMC proliferation by the Mab alone (CD4+ PBMC): do not suppress or inhibit
